In assay [1] the target is T1, HLA-A*02:01 in complex with the EGFR peptide … conjugated with osimertinib (human, osimertinib covalently bound to Cys).
T1 construct: also called HLA-A*02:01_EGFR-osimertinib; osimertinib-EGFR/HLA-A*02
Put plainly: phage display selection; MBBA.

Assay [2] deals with T2, HLA-A*03:01 in complex with the KRAS (wild type) peptide … (human).
T2 construct: also called HLA-A*03:01_WTRAS
Put plainly: MBBA titration of purified IgG (FIG. 11).

For assay [3], the target named is T3, HLA-A*11:01 in complex with the KRAS (wild type) peptide … (human).
T3 construct: also called HLA-A*11:01_WTRAS
The experiment in a line: MBBA titration of purified IgG (FIG. 11).

Assay [4] addresses T4, HLA-A*01:01 in complex with the BTK peptide … conjugated with Ibrutinib (human, ibrutinib covalently bound to Cys).
T4 construct: also called HLA-A*01:01_BTK-Ibrutinib
The experiment in a line: phage display selection; MBBA.

In assay [5] the target is T2, HLA-A*03:01 in complex with the KRAS …. The experiment in a line: flow cytometry on peptide-loaded Raji cells (FIG. 16). For orientation: A flow cytometer gives signals particle by particle.

This is an account of results in US20250353912A1 (NEW YORK UNIVERSITY, published 2025).

B1: OEA2-21 (antibody, V domains shown)
VH: EVQLVESGGGLVQPGGSLRLSCAASGFTFSSSYIHWVRQAPGKGLEWVASISPSYGYTSYADSVKGRFTISADTSKNTAYLQMNSLRAEDTAVYYCARDMYEWWHWAIDYWGQGTLVTVSS
VL: DIQMTQSPSSLSASVGDRVTITCRASQSVSSAVAWYQQKPGKAPKLLIYSASSLYSGVPSRFSGSRSGTDFTLTISSLQPEDFATYYCQQSSWGGLVTFGQGTKVEIKR
notes: phage-display clone
In the case of B1, in assay [1], the binding result was “binds”.

B2: AMRA11-15 (antibody, human IgG1, V domains shown)
VH: EVQLVESGGGLVQPGGSLRLSCAASGFTVYYSSIHWVRQAPGKGLEWVASIYSYYGSTYYADSVKGRFTISADTSKNTAYLQMNSLRAEDTAVYYCARGEKWALDYWGQGTLVTVSS
VL: DIQMTQSPSSLSASVGDRVTITCRASQSVSSAVAWYQQKPGKAPKLLIYSASSLYSGVPSRFSGSRSGTDFTLTISSLQPEDFATYYCQQFDFQYLITFGQGTKVEIKR
notes: phage-display clone; purified as human IgG1/kappa
Turning to B2, the binding result in assay [2] and in assay [3] was “no binding” in each case.

B3: OEA2-1 (antibody, V domains shown)
VH: EVQLVESGGGLVQPGGSLRLSCAASGFTFSSSSIHWVRQAPGKGLEWVASISSSSGSTSYADSVKGRFTISADTSKNTAYLQMNSLRAEDTAVYYCARYYGYVWGGYWGWWYSKALDYWGQGTLVTVSS
VL: DIQMTQSPSSLSASVGDRVTITCRASQSVSSAVAWYQQKPGKAPKLLIYSASSLYSGVPSRFSGSRSGTDFTLTISSLQPEDFATYYCQQSSSSLITFGQGTKVEIKR
notes: phage-display clone
For the molecule B3, the binding result in assay [1] is “binds”.

B4: AMRA3-22 (antibody, human IgG1, V domains shown)
VH: EVQLVESGGGLVQPGGSLRLSCAASGFTFYSSSIHWVRQAPGKGLEWVAYIYSSSGYTSYADSVKGRFTISADTSKNTAYLQMNSLRAEDTAVYYCARPVNYYYQGALDYWGQGTLVTVSS
VL: DIQMTQSPSSLSASVGDRVTITCRASQSVSSAVAWYQQKPGKAPKLLIYSASSLYSGVPSRFSGSRSGTDFTLTISSLQPEDFATYYCQQSDMPPITFGQGTKVEIKR
notes: phage-display clone; purified as human IgG1/kappa; also called AMRA3-22 hIgG1
In the case of B4, the binding result in assay [2] and in assay [3] was “no binding” throughout.

B5: AMRA311-17 (antibody, human IgG1, V domains shown)
VH: EVQLVESGGGLVQPGGSLRLSCAASGFTISSSSIHWVRQAPGKGLEWVASISSYSGSTYYADSVKGRFTISADTSKNTAYLQMNSLRAEDTAVYYCARYPYGSHVYTGLDYWGQGTLVTVSS
VL: DIQMTQSPSSLSASVGDRVTITCRASQSVSSAVAWYQQKPGKAPKLLIYSASSLYSGVPSRFSGSRSGTDFTLTISSLQPEDFATYYCQQSSSSLITFGQGTKVEIKR
notes: phage-display clone; purified as human IgG1/kappa; also called AMRA311-17 hIgG1
Consider B5, for which the binding result in assay [2] and in assay [3] was “no binding” in each case.

B6: OEA2-16 (antibody, V domains shown)
VH: EVQLVESGGGLVQPGGSLRLSCAASGFTFSSSSIHWVRQAPGKGLEWVASISSSSGSTSYADSVKGRFTISADTSKNTAYLQMNSLRAEDTAVYYCARSPSSPYFMSWGWYWQYGIDYWGQGTLVTVSS
VL: DIQMTQSPSSLSASVGDRVTITCRASQSVSSAVAWYQQKPGKAPKLLIYSASSLYSGVPSRFSGSRSGTDFTLTISSLQPEDFATYYCQQSSSSLITFGQGTKVEIKR
notes: phage-display clone
For the molecule B6, the binding result in assay [1] is recorded as “binds”.

B7: AMRA311-16 (antibody, human IgG1, V domains shown)
VH: EVQLVESGGGLVQPGGSLRLSCAASGFTISSSSIHWVRQAPGKGLEWVAYISSYSGYTYYADSVKGRFTISADTSKNTAYLQMNSLRAEDTAVYYCARYWYGHYHSYFGLDYWGQGTLVTVSS
VL: DIQMTQSPSSLSASVGDRVTITCRASQSVSSAVAWYQQKPGKAPKLLIYSASSLYSGVPSRFSGSRSGTDFTLTISSLQPEDFATYYCQQSSSSLITFGQGTKVEIKR
notes: phage-display clone; purified as human IgG1/kappa; also called AMRA311-16 hIgG1
For B7, the binding result in assay [2] and in assay [3] was “no binding” throughout.

B8: IBA1-21 (antibody, V domains shown)
VH: EVQLVESGGGLVQPGGSLRLSCAASGFTISSSSIHWVRQAPGKGLEWVASISSYYGYTSYADSVKGRFTISADTSKNTAYLQMNSLRAEDTAVYYCARYYSYSSGYGYYDYFDWGAMDYWGQGTLVTVSS
VL: DIQMTQSPSSLSASVGDRVTITCRASQSVSSAVAWYQQKPGKAPKLLIYSASSLYSGVPSRFSGSRSGTDFTLTISSLQPEDFATYYCQQMQYSGWLITFGQGTKVEIKR
notes: phage-display clone
With B8, the binding result in assay [4] was “binds”.

B9: AMRA3-7 (antibody, human IgG1, V domains shown)
VH: EVQLVESGGGLVQPGGSLRLSCAASGFTFSSYSIHWVRQAPGKGLEWVASIYSSYGYTSYADSVKGRFTISADTSKNTAYLQMNSLRAEDTAVYYCARGGWYPAMDYWGQGTLVTVSS
VL: DIQMTQSPSSLSASVGDRVTITCRASQSVSSAVAWYQQKPGKAPKLLIYSASSLYSGVPSRFSGSRSGTDFTLTISSLQPEDFATYYCQQISYVYSLITFGQGTKVEIKR
notes: phage-display clone; purified as human IgG1/kappa; also called AMRA3-7 hIgG1
As for B9, the binding result in assay [2] and in assay [3] was “no binding” in each case.

B10: AMRA3-18 (antibody, human IgG1, V domains shown)
VH: EVQLVESGGGLVQPGGSLRLSCAASGFTVSYSSIHWVRQAPGKGLEWVASISSSSGYTSYADSVKGRFTISADTSKNTAYLQMNSLRAEDTAVYYCARYAWWAHGLDYWGQGTLVTVSS
VL: DIQMTQSPSSLSASVGDRVTITCRASQSVSSAVAWYQQKPGKAPKLLIYSASSLYSGVPSRFSGSRSGTDFTLTISSLQPEDFATYYCQQGSYTYRLITFGQGTKVEIKR
notes: phage-display clone; purified as human IgG1/kappa; also called AMRA3-18 hIgG1
As for B10, the binding result in assay [2] and in assay [3] was “no binding” throughout.

B11: OEA2-12 (antibody, V domains shown)
VH: EVQLVESGGGLVQPGGSLRLSCAASGFTIYSSSIHWVRQAPGKGLEWVASISSYYGYTSYADSVKGRFTISADTSKNTAYLQMNSLRAEDTAVYYCARYQYYGSLYYSQQWAMDYWGQGTLVTVSS
VL: DIQMTQSPSSLSASVGDRVTITCRASQSVSSAVAWYQQKPGKAPKLLIYSASSLYSGVPSRFSGSRSGTDFTLTISSLQPEDFATYYCQQYDWNYYLVTFGQGTKVEIKR
notes: phage-display clone
As to B11, the binding result in assay [1] was “binds”.

B12: P2AMR-1 in the human IgG1 format (antibody, V domains shown)
VH: QVQLVQSEPEVKKPGSSVKLSCKASGGTFSTDAITWVRQAPGQGLEYMGGIIPLLDSVDYAQRFQGRVTVSADKSTGTAYMEVRSLGSEDTAKYYCAKWSSVDTGLDYWGQGTLVTVSS
VL: QSVLIQPRSVSGSPGQSVTISCTGTSSDVGGYNYVSWYQQHPGKAPKLMIYDVSKRPSGVPDRFSGSKSGNTASLTVSGLQAEDEADYYCGSYADTDTIVFGTGTKLTVL
notes: human IgG1; also called P2AMR-1 IgG
Consider B12, for which the binding result in assay [5] is “no binding”.
